B1: His-MinD (B. subtilis MinD, N-terminally His-tagged) [B. subtilis] / itself (parent)
chain: MGEAIVITSGKGGVGKTTTSANLGTALAILGKRVCLVDTDIGLRNLDVVMGLENRIIYDLVDVVEGRCKMHQALVKDKRFDDLLYLMPAAQTSDKTAVAPEQIKNMVQELKQEFDYVIIDCPAGIEQGYKNAVSGADKAIVVTTPEISAVRDADRIIGLLEQEENIEPPRLVVNRIRNHLMKNGDTMDIDEIVQHLSIDLLGIVADDDEVIKASNHGEPIAMDPKNRASIAYRNIARRILGESVPLQVLEEQNKGMMAKIKSFFGVRS

The experiment covers variants of B1. In words: gel filtration (size-exclusion chromatography), self-association. The note with it: with itself; purification buffers supplied with excess Mg2+-ADP; read off a plot. On the technique in general: In gel filtration, larger molecules generally elute earlier.
With MGEAIVITSGKGGVGATTTSANLGTALAILGKRVCLVDTDIGLRNLDVVMGLENRIIYDLVDVVEGRCKMHQALVKDKRFDDLLYLMPAAQTSDKTAVAPEQIKNMVQELKQEFDYVIIDCPAGIEQGYKNAVSGADKAIVVTTPEISAVRDADRIIGLLEQEENIEPPRLVVNRIRNHLMKNGDTMDIDEIVQHLSIDLLGIVADDDEVIKASNHGEPIAMDPKNRASIAYRNIARRILGESVPLQVLEEQNKGMMAKIKSFFGVRS [chain 1 K16A], the elution volume worked out at 15.7 mL.

Regarding MGEAIVITSGKGGVGKTTTSANLGTALAILGKRVCLVDTAIGLRNLDVVMGLENRIIYDLVDVVEGRCKMHQALVKDKRFDDLLYLMPAAQTSDKTAVAPEQIKNMVQELKQEFDYVIIDCPAGIEQGYKNAVSGADKAIVVTTPEISAVRDADRIIGLLEQEENIEPPRLVVNRIRNHLMKNGDTMDIDEIVQHLSIDLLGIVADDDEVIKASNHGEPIAMDPKNRASIAYRNIARRILGESVPLQVLEEQNKGMMAKIKSFFGVRS [chain 1 D40A], the elution volume came out at 15.8 mL.

With MGEAIVITSGKVGVGKTTTSANLGTALAILGKRVCLVDTDIGLRNLDVVMGLENRIIYDLVDVVEGRCKMHQALVKDKRFDDLLYLMPAAQTSDKTAVAPEQIKNMVQELKQEFDYVIIDCPAGIEQGYKNAVSGADKAIVVTTPEISAVRDADRIIGLLEQEENIEPPRLVVNRIRNHLMKNGDTMDIDEIVQHLSIDLLGIVADDDEVIKASNHGEPIAMDPKNRASIAYRNIARRILGESVPLQVLEEQNKGMMAKIKSFFGVRS [chain 1 G12V], the elution volume amounted to 16.1 mL.
